Reference: patent US20210154314A1

Experiments:
Her2 (ErbB2) [1] = target: Her2 (ErbB2) (UniProt P04626); test: ligand binding assay ('Binding Activity'), format not described; lyophilized formula B2 after 37 C for 1 month
Her2 (ErbB2) [2] = target: Her2 (ErbB2) (UniProt P04626); test: ligand binding assay ('Binding Activity'), format not described; lyophilized formula B4 after 4 C for 6 months
Her2 (ErbB2) [3] = target: Her2 (ErbB2) (UniProt P04626); test: ligand binding assay ('Binding Activity'), format not described; lyophilized formula B4 after 37 C for 1 month
Her2 (ErbB2) [4] = target: Her2 (ErbB2) (UniProt P04626); test: ligand binding assay ('Binding Activity'), format not described; lyophilized formula B2 after 25 C for 3 months
Her2 (ErbB2) [5] = target: Her2 (ErbB2) (UniProt P04626); test: ligand binding assay ('Binding Activity'), format not described; lyophilized formula B6 after 4 C for 6 months
Her2 (ErbB2) [6] = target: Her2 (ErbB2) (UniProt P04626); test: ligand binding assay ('Binding Activity'), format not described; lyophilized formula B2 after 4 C for 6 months
Her2 (ErbB2) [7] = target: Her2 (ErbB2) (UniProt P04626); test: ligand binding assay ('Binding Activity'), format not described; lyophilized formula B6 after 37 C for 1 month
Her2 (ErbB2) [8] = target: Her2 (ErbB2) (UniProt P04626); test: ligand binding assay ('Binding Activity'), format not described; lyophilized formula B6 after 25 C for 3 months
Her2 (ErbB2) [9] = target: Her2 (ErbB2) (UniProt P04626); test: ligand binding assay ('Binding Activity'), format not described; lyophilized formula B4 after 25 C for 3 months

- IC50 (Her2 (ErbB2) [1]): 0.0152 nM
- IC50 (Her2 (ErbB2) [2]): 0.0122 nM
- IC50 (Her2 (ErbB2) [3]): 0.0126 nM
- IC50 (Her2 (ErbB2) [4]): 0.0133 nM
- IC50 (Her2 (ErbB2) [5]): 0.0133 nM
- IC50 (Her2 (ErbB2) [6]): 0.0132 nM
- IC50 (Her2 (ErbB2) [7]): 0.0148 nM
- IC50 (Her2 (ErbB2) [8]): 0.0129 nM
- IC50 (Her2 (ErbB2) [9]): 0.0127 nM
B1: recombinant humanized anti-Her2 monoclonal antibody-MMAE conjugate (RC48-vc-MMAE) (antibody, INN chains, looked up, V domains shown, not shown: a dimerising Fc or GST)
VH: EVQLVQSGAEVKKPGATVKISCKVSGYTFTDYYIHWVQQAPGKGLEWMGRVNPDHGDSYYNQKFKDKATITADKSTDTAYMELSSLRSEDTAVYFCARNYLFDHWGQGTLVTVSS
VL: DIQMTQSPSSVSASVGDRVTITCKASQDVGTAVAWYQQKPGKAPKLLIYWASIRHTGVPSRFSGSGSGTDFTLTISSLQPEDFATYYCHQFATYTFGGGTKVEIK
modifications: vedotin: mc-vc-PAB-MMAE payload
